From patent publication US20090149389A1 (PURDUE RESEARCH FOUNDATION, published 2009)

What was measured:
Test in all cases: cell-based or functional assay
Abl (h) = Abl (h) (human (h), UniProt P00519 27-1130, limits assumed)
AMPK (r) = AMPK (r) (rat (r), UniProt Q09137 1-552, limits assumed)
IRAK4 (h) = biological target: T1, IRAK4 (h) (human (h), UniProt Q9NWZ3 1-460, limits assumed)
T1 sequence (looked up): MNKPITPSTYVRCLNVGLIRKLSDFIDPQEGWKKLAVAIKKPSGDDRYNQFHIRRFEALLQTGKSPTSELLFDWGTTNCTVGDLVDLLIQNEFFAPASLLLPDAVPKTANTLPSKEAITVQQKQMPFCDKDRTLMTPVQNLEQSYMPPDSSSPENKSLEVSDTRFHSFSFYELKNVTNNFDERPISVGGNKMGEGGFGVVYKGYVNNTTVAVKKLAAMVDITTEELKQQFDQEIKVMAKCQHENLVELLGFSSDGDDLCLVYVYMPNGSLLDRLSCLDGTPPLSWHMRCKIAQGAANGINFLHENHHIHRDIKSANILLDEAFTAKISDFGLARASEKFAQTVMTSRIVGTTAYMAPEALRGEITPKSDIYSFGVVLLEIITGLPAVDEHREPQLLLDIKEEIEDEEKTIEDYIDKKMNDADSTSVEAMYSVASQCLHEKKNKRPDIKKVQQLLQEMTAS

Lck (h) = Lck (h) (human (h), UniProt P06239 1-509)
Met (h) = Met (h) (human (h), UniProt P08581 974-1390, limits assumed)
MLCK (h) = MLCK (h) (human (h))
PKCδ (h) = PKCδ (h) (human (h), UniProt Q05655 1-676)
Ret (h) = biological target: T2, Ret (h) (human (h), UniProt P07949 658-1114, limits assumed)
T2 sequence (looked up): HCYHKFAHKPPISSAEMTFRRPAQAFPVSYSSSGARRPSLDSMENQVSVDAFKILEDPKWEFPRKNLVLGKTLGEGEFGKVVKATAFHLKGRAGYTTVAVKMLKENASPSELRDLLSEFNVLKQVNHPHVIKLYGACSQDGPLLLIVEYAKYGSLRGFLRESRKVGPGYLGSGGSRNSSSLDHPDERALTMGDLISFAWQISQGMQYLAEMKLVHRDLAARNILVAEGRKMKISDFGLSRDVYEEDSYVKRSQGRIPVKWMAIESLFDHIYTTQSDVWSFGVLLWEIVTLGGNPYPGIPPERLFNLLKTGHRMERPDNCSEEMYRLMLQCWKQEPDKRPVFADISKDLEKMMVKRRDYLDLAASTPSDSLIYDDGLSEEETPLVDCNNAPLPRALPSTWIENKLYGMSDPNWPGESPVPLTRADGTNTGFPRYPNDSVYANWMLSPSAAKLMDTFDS

Src(1-530) (h) = Src(1-530) (h) (human (h), UniProt P12931 1-530)

Chain of PKCδ (h) (Q05655 whole entry, stated change not applied): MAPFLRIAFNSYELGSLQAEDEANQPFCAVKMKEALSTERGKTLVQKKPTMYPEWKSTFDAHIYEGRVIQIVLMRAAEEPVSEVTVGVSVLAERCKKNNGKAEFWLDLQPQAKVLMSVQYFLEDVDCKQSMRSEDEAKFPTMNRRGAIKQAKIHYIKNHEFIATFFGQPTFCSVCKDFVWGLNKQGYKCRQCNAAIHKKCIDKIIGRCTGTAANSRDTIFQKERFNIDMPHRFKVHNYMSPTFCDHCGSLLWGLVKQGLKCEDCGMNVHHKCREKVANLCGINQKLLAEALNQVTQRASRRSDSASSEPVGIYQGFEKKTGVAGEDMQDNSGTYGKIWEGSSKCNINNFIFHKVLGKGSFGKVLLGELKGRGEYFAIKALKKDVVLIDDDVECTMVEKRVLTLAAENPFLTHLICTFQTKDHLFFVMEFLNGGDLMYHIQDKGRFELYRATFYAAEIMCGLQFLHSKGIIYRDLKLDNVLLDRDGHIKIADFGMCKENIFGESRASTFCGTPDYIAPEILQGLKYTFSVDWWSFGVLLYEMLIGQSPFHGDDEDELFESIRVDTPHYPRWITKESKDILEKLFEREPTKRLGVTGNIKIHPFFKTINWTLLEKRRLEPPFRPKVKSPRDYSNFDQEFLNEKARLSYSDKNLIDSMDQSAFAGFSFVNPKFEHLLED
Chain of Abl (h) (P00519 27-1130 limits assumed): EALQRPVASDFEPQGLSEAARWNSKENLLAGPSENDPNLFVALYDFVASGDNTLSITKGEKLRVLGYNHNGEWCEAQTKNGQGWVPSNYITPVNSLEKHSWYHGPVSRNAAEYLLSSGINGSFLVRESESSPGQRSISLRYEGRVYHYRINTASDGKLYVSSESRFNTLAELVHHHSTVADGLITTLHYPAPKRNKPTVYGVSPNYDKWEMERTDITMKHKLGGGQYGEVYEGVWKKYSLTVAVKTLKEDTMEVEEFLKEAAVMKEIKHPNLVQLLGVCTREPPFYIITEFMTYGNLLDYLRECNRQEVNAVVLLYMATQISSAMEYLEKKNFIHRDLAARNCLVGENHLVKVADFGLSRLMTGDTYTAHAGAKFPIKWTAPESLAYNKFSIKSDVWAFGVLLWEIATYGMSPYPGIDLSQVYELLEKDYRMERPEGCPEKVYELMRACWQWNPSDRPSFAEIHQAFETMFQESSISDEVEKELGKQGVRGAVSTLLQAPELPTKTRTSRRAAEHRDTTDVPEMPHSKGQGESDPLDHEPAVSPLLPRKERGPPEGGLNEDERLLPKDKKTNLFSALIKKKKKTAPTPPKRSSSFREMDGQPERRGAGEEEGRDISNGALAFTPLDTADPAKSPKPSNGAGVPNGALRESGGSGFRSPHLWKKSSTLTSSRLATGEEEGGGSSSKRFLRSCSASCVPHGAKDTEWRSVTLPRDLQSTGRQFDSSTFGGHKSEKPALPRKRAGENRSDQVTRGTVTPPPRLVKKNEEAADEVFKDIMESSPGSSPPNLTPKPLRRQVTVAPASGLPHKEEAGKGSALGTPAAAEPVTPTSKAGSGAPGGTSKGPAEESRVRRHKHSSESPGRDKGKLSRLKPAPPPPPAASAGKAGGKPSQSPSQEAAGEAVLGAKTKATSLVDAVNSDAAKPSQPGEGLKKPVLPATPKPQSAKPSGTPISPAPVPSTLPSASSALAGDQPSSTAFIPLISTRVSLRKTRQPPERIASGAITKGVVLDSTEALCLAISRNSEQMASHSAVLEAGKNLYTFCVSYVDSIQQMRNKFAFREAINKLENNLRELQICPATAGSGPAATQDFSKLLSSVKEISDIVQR
Chain of Met (h) (P08581 974-1390 limits assumed): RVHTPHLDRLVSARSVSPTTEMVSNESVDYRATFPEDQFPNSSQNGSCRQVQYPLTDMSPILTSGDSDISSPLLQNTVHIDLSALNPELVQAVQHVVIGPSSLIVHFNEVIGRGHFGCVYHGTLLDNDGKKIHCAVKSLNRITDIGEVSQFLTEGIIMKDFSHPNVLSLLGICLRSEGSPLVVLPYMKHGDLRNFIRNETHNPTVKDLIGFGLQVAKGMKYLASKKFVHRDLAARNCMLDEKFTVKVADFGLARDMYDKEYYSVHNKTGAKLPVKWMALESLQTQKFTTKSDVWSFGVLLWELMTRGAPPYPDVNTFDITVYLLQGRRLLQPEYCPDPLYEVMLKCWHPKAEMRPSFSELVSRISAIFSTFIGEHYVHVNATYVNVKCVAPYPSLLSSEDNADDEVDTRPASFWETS
Chain of AMPK (r) (Q09137 whole entry): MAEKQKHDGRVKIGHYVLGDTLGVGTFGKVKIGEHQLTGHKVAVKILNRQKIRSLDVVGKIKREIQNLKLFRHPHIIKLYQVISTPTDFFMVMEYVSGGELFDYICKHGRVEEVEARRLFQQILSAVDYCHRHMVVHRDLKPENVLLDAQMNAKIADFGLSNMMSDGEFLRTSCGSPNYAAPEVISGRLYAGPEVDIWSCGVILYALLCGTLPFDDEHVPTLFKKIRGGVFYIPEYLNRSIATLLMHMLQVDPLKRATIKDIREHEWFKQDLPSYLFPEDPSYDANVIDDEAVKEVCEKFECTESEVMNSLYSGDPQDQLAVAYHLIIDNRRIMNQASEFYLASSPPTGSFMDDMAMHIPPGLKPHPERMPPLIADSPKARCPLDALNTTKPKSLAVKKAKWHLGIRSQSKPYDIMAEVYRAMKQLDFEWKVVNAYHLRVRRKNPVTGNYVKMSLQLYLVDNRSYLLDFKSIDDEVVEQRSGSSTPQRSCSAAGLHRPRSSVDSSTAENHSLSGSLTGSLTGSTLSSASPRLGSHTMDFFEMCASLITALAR
Chain of Lck (h) (P06239 whole entry): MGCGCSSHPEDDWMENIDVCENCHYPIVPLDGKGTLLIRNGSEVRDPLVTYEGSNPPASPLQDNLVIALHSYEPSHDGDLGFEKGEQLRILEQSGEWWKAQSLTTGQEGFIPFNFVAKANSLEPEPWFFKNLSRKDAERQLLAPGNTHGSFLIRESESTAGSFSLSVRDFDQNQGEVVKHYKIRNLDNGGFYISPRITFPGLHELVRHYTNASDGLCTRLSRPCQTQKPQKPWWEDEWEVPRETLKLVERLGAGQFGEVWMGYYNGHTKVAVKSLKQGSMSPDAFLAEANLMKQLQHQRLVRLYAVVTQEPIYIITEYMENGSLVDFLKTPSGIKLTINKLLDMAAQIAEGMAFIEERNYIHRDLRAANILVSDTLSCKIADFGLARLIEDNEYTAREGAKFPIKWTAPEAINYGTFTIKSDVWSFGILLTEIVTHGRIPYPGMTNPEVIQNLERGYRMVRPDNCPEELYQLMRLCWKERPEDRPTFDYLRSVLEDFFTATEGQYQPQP

B1: WLRRIKAWLRRIKALNRQLGVAA (peptide)
peptide: WLRRIKAWLRRIKALNRQLGVAA
Profile-1 @ = 30 µm (kinase profiler assay) (Abl (h)): 24
Profile-1 @ = 30 µm (kinase profiler assay) (AMPK (r)): 36
Profile-1 @ = 30 µm (kinase profiler assay) (IRAK4 (h)): 12
Profile-1 @ = 30 µm (kinase profiler assay) (Lck (h)): 130
Profile-1 @ = 30 µm (kinase profiler assay) (Met (h)): 30
Profile-1 @ = 30 µm (kinase profiler assay) (MLCK (h)): 4
Profile-1 @ = 30 µm (kinase profiler assay) (PKCδ (h)): 11
Profile-1 @ = 30 µm (kinase profiler assay) (Ret (h)): 117
Profile-1 @ = 30 µm (kinase profiler assay) (Src(1-530) (h)): 6
